According to PMC7666158:
Changes are numbered by the printed parent chain. In names and notes the source's numbering stands. One block for each binder: values may come before it.

How the values were obtained:
[1] = biological target: JNK1-dc20 (JNK1 with the C-terminal 20 residues truncated) (human) (UniProt P45983); experiment: ITC; as a5, with 2 mM EDTA
[2] = biological target: JNK1-dc20 (JNK1 with the C-terminal 20 residues truncated) (human) (UniProt P45983); experiment: fluorescence polarisation; competitive: 50 nM CF-evJIP with JNK1 at ~60–80% complex, titrated with unlabeled competitor; 20 mM Tris pH 8.0, 100 mM NaCl, 0.05% Brij35P, 2 mM TCEP; 384-well plates
[3] = biological target: pp-JNK1 (activated, phosphorylated JNK1) (human) (UniProt P45983); experiment: in vitro kinase assay fitted with a kinetic model; 5 nM pp-JNK or pp-p38, MBP-ATF2(19-100) substrate 0.5-100 uM, 5 mM ATP, kinase buffer; p-T71 and p-T69/T71 by quantitative dot-blots; binding rates (kon, koff) and reaction rates fitted simultaneously with the BioNetGen model (PyBioNetFit)
[4] = biological target: JNK1-dc20 (JNK1 where the C-terminal 20 residues are truncated) (human) (UniProt P45983); experiment: fluorescence polarisation; competitive titration: JNK1 with CF-evJIP (50 nM; JNK1 at ~60-80% complex formation) titrated with unlabeled MBP-ATF2(19-100) constructs; data fit to a competition binding equation; 20 mM Tris pH 8.0, 100 mM NaCl, 0.05% Brij35P, 2 mM TCEP

Binder: MSDDKPFLCTAPGCGQRFTNEDHLAVHKHKHEMTLKFGPA (domain or fragment) [ATF2(19–58) as used in the competitive fluorescence polarisation assay]
Kd [2]: 5 µM

B3: MBP-ATF2-(19-100)-H47R (domain or fragment)
chain: MSDDKPFLCTAPGCGQRFTNEDHLAVHKRKHEMTLKFGPARNDSVIVADQTPTPTRFLKNCEEVGLFNELASPFENEFKKAS
Kd [4]: 0.26 µM

B4: MBP-ATF2-(19-100)-Q34R/H47R (domain or fragment)
chain: B3 chain with Q16R
Kd [4]: 0.05 µM

B6: MBP-ATF2-(19-100)-Q34R (domain or fragment)
chain: B3 chain with Q16R, R29H
Kd [4]: 0.87 µM

B8: MBP-ATF2-(19-100)-V44E (domain or fragment)
chain: B3 chain with V26E, R29H
Kd [4]: 56.2 µM

The next lines start with the values.

fold decrease in binding with EDTA against no EDTA [1]: 10 fold
Binder: MSDDKPFLCTAPGCGQRFTNEDHLAVHKHKHEMTLKFGPA (domain or fragment) [ATF2(19–58)-His6 (MBP removed, for ITC)]

Kd [3]: 3.5 µM
koff [3]: 19.6 s⁻¹
kon [3]: 5.6e+06 M⁻¹ s⁻¹
Kd [4]: 3.5 µM
B1: MBP-ATF2(19-100)-WT (domain or fragment)
chain: B3 chain with R29H

fold decrease in binding against the wild type [2]: 10 fold
B2: MBP-ATF2(19–100) K48E (domain or fragment)
chain: B3 chain with R29H, K30E

Kd [4]: 39.3 µM
B5: MBP-ATF2-(19-100)-H47E (domain or fragment)
chain: B3 chain with R29E

Kd [4]: 15.5 µM
B7: MBP-ATF2-(19-100)-V44A (domain or fragment)
chain: B3 chain with V26A, R29H
